Results reported in patent publication US20260000597A1 (priority 2018, published 2026).
No end group written: not given here.

Tests used:
[1] = target: Acetylcholine receptor proteins (AchR) (Homo sapiens, UniProt P02708); type: binding; conditions: for AchR binding affinity compared with Spep-2 / AchR binding affinity: SPR; for AchR binding affinity: 10 μM peptides, compared with Synake
Description: Spep-1 to Spep-11 selected in Example 1 were synthesized, and the AchR binding affinity was compared thereamong using a surface plasmon resonance (SPR) analyzer (Biacore3000, Biacore A, Sweden). […]
The treatment concentrations of Spep-2 were 0.12 to 1 μM, and the dissociation constant was compared while Synake was used as a positive control.

[2] = target: AchR (Homo sapiens, UniProt P02708); assay: ELISA of screened peptide phages on AchR versus streptavidin (OD450); type: binding; conditions: absorbance at 450 nm
Chain of AchR (P02708 21-457): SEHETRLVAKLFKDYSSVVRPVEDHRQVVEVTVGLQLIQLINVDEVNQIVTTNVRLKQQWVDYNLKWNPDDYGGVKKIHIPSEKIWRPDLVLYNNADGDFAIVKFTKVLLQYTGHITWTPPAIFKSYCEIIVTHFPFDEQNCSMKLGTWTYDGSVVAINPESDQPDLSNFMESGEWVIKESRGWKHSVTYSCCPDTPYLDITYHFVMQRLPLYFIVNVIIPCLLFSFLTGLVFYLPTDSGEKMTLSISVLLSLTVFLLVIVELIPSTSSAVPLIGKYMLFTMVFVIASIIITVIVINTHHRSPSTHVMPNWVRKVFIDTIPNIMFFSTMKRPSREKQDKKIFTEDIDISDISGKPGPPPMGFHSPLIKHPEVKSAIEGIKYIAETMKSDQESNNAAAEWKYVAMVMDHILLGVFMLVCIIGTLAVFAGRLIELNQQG
Summary of the method: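 Phage supernatants from 4th–5th round plaques, in 2% BSA, applied 1 h at 30 °C to wells coated with 5 μg/ml AchR or streptavidin. Bound phage detected with HRP anti-M13 and TMB at OD450; value given as AchR/streptavidin signal ratio.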

[3] = ELISA of selected 14-mer (L3) peptide phages on AchR, Spep-2 positive control
[4] = phage ELISA, 5 μg/ml AchR, 4th and 5th round biopanning phages

Chain of Acetylcholine receptor proteins (AchR) (P02708 21-457): as above

GRKSLLR [Spep-2-ND4]
AchR binding affinity compared with Spep-2 [1]: significantly reduced binding affinity

L3-175 (TCHKTKRSIMRATS; AchR binding peptide) [Peptide L3-175]
OD [2, 3]: 0.768

L3-176 (MIGKCRKCGTKCYA; AchR binding peptide) [Peptide L3-176]
OD [2, 3]: 0.739

L3-177 (FQPKSRRAETKHSY; AchR binding peptide) [Peptide L3-177]
OD [2, 3]: 0.735

L3-178 (PDLKFRKHQDRTAI; AchR binding peptide) [Peptide L3-178]
OD [2, 3]: 0.755

L3-179 (YNARVKREGIKNIT; AchR binding peptide) [Peptide L3-179]
OD [2, 3]: 0.743

L3-180 (QGIRPRKHLQRMPN; AchR binding peptide) [Peptide L3-180]
OD [2, 3]: 0.7

L3-181 (GPCRPRRHSIRLLW; AchR binding peptide) [Peptide L3-181]
OD [2, 3]: 0.624

L3-182 (FYLRERRHQLKTEF; AchR binding peptide) [Peptide L3-182]
OD [2, 3]: 0.818

L3-183 (NMARSRKNECKYIA; AchR binding peptide) [Peptide L3-183]
OD [2, 3]: 0.768

L3-184 (DMDKVKKWVWRSFP; AchR binding peptide) [Peptide L3-184]
OD [2, 3]: 0.766

L3-185 (VLPKERRWLTRFLI; AchR binding peptide) [Peptide L3-185]
OD [2, 3]: 0.794

L3-186 (YEHRHKRFFHKDMP; AchR binding peptide) [Peptide L3-186]
OD [2, 3]: 0.799

L3-187 (HGHKPRRWIYRMPM; AchR binding peptide) [Peptide L3-187]
OD [2, 3]: 0.731

L3-188 (DGIRDKKCCWRDLI; AchR binding peptide) [Peptide L3-188]
OD [2, 3]: 0.738

L3-189 (ELVKHRRLDFRDPM; AchR binding peptide) [Peptide L3-189]
OD [2, 3]: 0.786

L3-190 (VHHKLRRVHLRLDV; AchR binding peptide) [Peptide L3-190]
OD [2, 3]: 0.792

L3-191 (GINRGRKVSPKDEQ; AchR binding peptide) [Peptide L3-191]
OD [2, 3]: 0.739

L3-192 (NGYRARKENLKFPE; AchR binding peptide) [Peptide L3-192]
OD [2, 3]: 0.735

L3-193 (AAYRARKIVEKSGW; AchR binding peptide) [Peptide L3-193]
OD [2, 3]: 0.755

L3-194 (WAPRDRRNMGRDPA; AchR binding peptide) [Peptide L3-194]
OD [2, 3]: 0.743

L3-195 (IEDKSKRFNCKECG; AchR binding peptide) [Peptide L3-195]
OD [2, 3]: 0.7

L3-196 (IEMRYRRDCSRFVN; AchR binding peptide) [Peptide L3-196]
OD [2, 3]: 0.746

L3-197 (QQIKYKRPTYRMVC; AchR binding peptide) [Peptide L3-197]
OD [2, 3]: 0.771

L3-198 (LPWRERRNGGRSSE; AchR binding peptide) [Peptide L3-198]
OD [2, 3]: 0.78

L3-199 (PQTRYRKYFYRPQM; AchR binding peptide) [Peptide L3-199]
OD [2, 3]: 0.781

L3-200 (HMCRWRRQINKGVS; AchR binding peptide) [Peptide L3-200]
OD [2, 3]: 0.733

RAKKCYHK [Peptide L1-50]
OD [2, 4]: 0.583

RAKKIMFR [Peptide L1-177]
OD [2, 4]: 0.484

RAKRMCCK [Peptide L1-8]
OD [2, 4]: 0.653

RARKDAFK [Peptide L1-11]
OD [2, 4]: 0.703

RARKESHK [Peptide L1-166]
OD [2, 4]: 0.649

RARKLHNR [Peptide L1-103]
OD [2, 4]: 0.55

RCKKNPEK [Peptide L1-66]
OD [2, 4]: 0.605

RCKRCDNK [Peptide L1-120]
OD [2, 4]: 0.388

RCKRFVGK [Peptide L1-173]
OD [2, 4]: 0.63

RCRKDTAR [Peptide L1-142]
OD [2, 4]: 0.469

RDRKFVQK [Peptide L1-154]
OD [2, 4]: 0.633

RDRKIHDK [Peptide L1-23]
OD [2, 4]: 0.712

RDRKNPVR [Peptide L1-124]
OD [2, 4]: 0.428

REKKQEVK [Peptide L1-150]
OD [2, 4]: 0.457

REKKYAYK [Peptide L1-181]
OD [2, 4]: 0.589

REKRYMAR [Peptide L1-91]
OD [2, 4]: 0.826

RFKRLCMK [Peptide L1-15]
OD [2, 4]: 0.67

RFKRMVWR [Peptide L1-99]
OD [2, 4]: 0.543

RFRKMIPK [Peptide L1-115]
OD [2, 4]: 0.451

RFRKPTDR [Peptide L1-127]
OD [2, 4]: 0.412

RFRRGVRR [Peptide L1-13]
OD [2, 4]: 0.73

RFRRNFHK [Peptide L1-196]
OD [2, 4]: 0.583

RGKKAVRK [Peptide L1-20]
OD [2, 4]: 0.619

RGKKPWWR [Peptide L1-104]
OD [2, 4]: 0.46

RGKKQLSK [Peptide L1-121]
OD [2, 4]: 0.354

RGKRGCER [Peptide L1-54]
OD [2, 4]: 0.569

RGKRHWHR [Peptide L1-179]
OD [2, 4]: 0.633

RGKRQLGR [Peptide L1-3]
OD [2, 4]: 0.649

RGRKKCGK [Peptide L1-42]
OD [2, 4]: 0.695

RGRKPIWK [Peptide L1-108]
OD [2, 4]: 0.535

RGRRGTMR [Peptide L1-93]
OD [2, 4]: 0.616

RGRRWFVK [Peptide L1-28]
OD [2, 4]: 0.656

RHKKFIEK [Peptide L1-59]
OD [2, 4]: 0.479

RHKKSPWK [Peptide L1-5]
OD [2, 4]: 0.657

RHKRMLWR [Peptide L1-131]
OD [2, 4]: 0.505

RHKRQQDK [Peptide L1-186]
OD [2, 4]: 0.474

RHKRWEVR [Peptide L1-195]
OD [2, 4]: 0.642

RHKRWSGR [Peptide L1-153]
OD [2, 4]: 0.625

RHRKYVDK [Peptide L1-152]
OD [2, 4]: 0.484

RHRRANFR [Peptide L1-147]
OD [2, 4]: 0.415

RIKRDYCK [Peptide L1-164]
OD [2, 4]: 0.616

RIKRNNCK [Peptide L1-130]
OD [2, 4]: 0.368

RIRKITWR [Peptide L1-194]
OD [2, 4]: 0.636

RIRRAHDR [Peptide L1-165]
OD [2, 4]: 0.644

RIRRGSVR [Peptide L1-57]
OD [2, 4]: 0.408

RIRRHMYR [Peptide L1-83]
OD [2, 4]: 0.621

RIRRVSQR [Peptide L1-60]
OD [2, 4]: 0.484

RIRRWWVR [Peptide L1-82]
OD [2, 4]: 0.596

RKSLLR [Spep-2-ND5, RKSLLR]
binding affinity reduced compared with Spep-2 (11-mer) [1]: 48 times
AchR binding affinity compared with Spep-2 [1]: significantly reduced binding affinity

RLKKHCGK [Peptide L1-187]
OD [2, 4]: 0.668

RLKRAPGR [Peptide L1-33]
OD [2, 4]: 0.529

RLKRGQFK [Peptide L1-85]
OD [2, 4]: 0.57

RLRKSLGK [Peptide L1-95]
OD [2, 4]: 0.535

RLRRRYRR [Peptide L1-45]
OD [2, 4]: 0.597

RLRRWCVK [Peptide L1-30]
OD [2, 4]: 0.605

RMKKFHTR [Peptide L1-128]
OD [2, 4]: 0.301

RNKRDENK [Peptide L1-29]
OD [2, 4]: 0.646

RNKRMDGK [Peptide L1-157]
OD [2, 4]: 0.585

RNRKIPLK [Peptide L1-44]
OD [2, 4]: 0.59

RPKKHQER [Peptide L1-158]
OD [2, 4]: 0.605

RPKKWMQK [Peptide L1-61]
OD [2, 4]: 0.625

RPKRNWAK [Peptide L1-96]
OD [2, 4]: 0.494

RPKRSPSK [Peptide L1-117]
OD [2, 4]: 0.508

RPRRGHQK [Peptide L1-24]
OD [2, 4]: 0.742

RPRRSLDR [Peptide L1-17]
OD [2, 4]: 0.653

RPRRTHIK [Peptide L1-6]
OD [2, 4]: 0.652

RQKKDFLK [Peptide L1-107]
OD [2, 4]: 0.534

RQKKDNQK [Peptide L1-26]
OD [2, 4]: 0.647

RQKKPWVK [Peptide L1-31]
OD [2, 4]: 0.604

RQRKSMQR [Peptide L1-27]
OD [2, 4]: 0.662

RQRRMTPR [Peptide L1-156]
OD [2, 4]: 0.589

RQRRNDMK [Peptide L1-9]
OD [2, 4]: 0.639

RRRRRRRRRRR [Peptide L2-201, reference compound]
OD [2, 4]: 0.307

RSKKINNK [Peptide L1-71]
OD [2, 4]: 0.618

RSKKSLYR [Peptide L1-53]
OD [2, 4]: 0.78

RSKRMNGK [Peptide L1-58]
OD [2, 4]: 0.472

RSRRCPVK [Peptide L1-119]
OD [2, 4]: 0.463

RSRRGIGK [Peptide L1-192]
OD [2, 4]: 0.581

RTKKAYVK [Peptide L1-200]
OD [2, 4]: 0.621

RTKKENVK [Peptide L1-180]
OD [2, 4]: 0.618

RTKRWQLK [Peptide L1-94]
OD [2, 4]: 0.496

RTRKCVLK [Peptide L1-89]
OD [2, 4]: 0.551

RVKKAETR [Peptide L1-92]
OD [2, 4]: 0.581

RVKRFVPK [Peptide L1-112]
OD [2, 4]: 0.431

RVRRDGHR [Peptide L1-49]
OD [2, 4]: 0.504

RVRRSWIR [Peptide L1-72]
OD [2, 4]: 0.616

RWKKNINK [Peptide L1-80]
OD [2, 4]: 0.631

RWKRSEQR [Peptide L1-32]
OD [2, 4]: 0.607

RWRRSVIK [Peptide L1-106]
OD [2, 4]: 0.417

RYKKQQYK [Peptide L1-167]
OD [2, 4]: 0.581

RYKKVPAK [Peptide L1-118]
OD [2, 4]: 0.471

RYRRWFYR [Peptide L1-155]
OD [2, 4]: 0.618

WTWKGNKQVKF [Spep-10]
AchR binding affinity [1]: high AchR binding affinity compared with Synake

WTWKGRDKLQM [Spep-4]
AchR binding affinity [1]: high AchR binding affinity compared with Synake
